In experiment [1] the target is NF-κB Essential Modulator (NEMO), full-length recombinant human protein (residues 2–419) with five cysteine-to-alanine substitutions (human) (UniProt Q9Y6K9). The experiment in a line: fluorescence polarisation. A general note: Polarisation of emitted light reports the rotation of a fluorescent probe.
For experiment [2], the target named is full-length recombinant human NEMO (Homo sapiens, UniProt Q9Y6K9, C11A/C131A/C167A/C76A/C95A). The experiment in a line: Fluorescence anisotropy. The following applies: KD2 competition assay vs KD1 direct binding assay.

No end group written: not given here. Where only a bound is given, the exact number is not on record here.

Broadly, the Kd is the constant that tells how readily two partners part at equilibrium.

Take “cleaved IKKβ peptide L719A (from UniProt O14920 701-745)”: in experiment [1], the Kd was found to be 21 µM.

As for “MBP-IKKβ-His(C716S) W739A (from UniProt O14920 701-745) (domain or fragment)”, the Kd in experiment [1] is over 0.87 µM.

Regarding “cleaved IKKβ peptide W741A (from UniProt O14920 701-745)”, the Kd in experiment [1] was found to be 9.3 µM.

For “cleaved IKKβ peptide L742A (from UniProt O14920 701-745)”, the Kd in experiment [1] was found to be 5.5 µM.

With “MBP-IKKβ-His(C716S) L708A (from UniProt O14920 701-745) (domain or fragment)”, in experiment [1], the Kd is over 0.87 µM.

Take “PAKKSEELVAEAHNLCTLLENAIQDTVREQDQSFTALDWSWLQTE [IKKβ(701–745)]”: the “KD2 of unlabeled peptide relative to KD1 of FITC-IKKβ” value in experiment [2] is recorded as ~ 4 fold.

Consider “MBP-IKKβ-His(C716S) W741A (from UniProt O14920 701-745) (domain or fragment)”, for which the Kd in experiment [1] was over 0.87 µM.

Consider “WT MBP-IKKβ-His (from UniProt O14920 701-745) (domain or fragment)”, for which the Kd in experiment [1] worked out at 0.015 µM.

On to “cleaved IKKβ peptide W739A (from UniProt O14920 701-745)”, for which the Kd in experiment [1] came out at 35 µM.

As to “MBP-IKKβ-His(C716S) L719A (from UniProt O14920 701-745) (domain or fragment)”, in experiment [1], the Kd was over 0.87 µM.

In the case of “MBP-IKKβ-His(C716S) D738A (from UniProt O14920 701-745) (domain or fragment)”, in experiment [1], the Kd was over 0.87 µM.

As to “cleaved IKKβ peptide L708A (from UniProt O14920 701-745)”, the Kd in experiment [1] came out at 2.7 µM.

Consider “MBP-IKKβ-His(C716S) L742A (from UniProt O14920 701-745) (domain or fragment)”, for which the Kd in experiment [1] is over 0.87 µM.

In the case of “cleaved IKKβ peptide D738A (from UniProt O14920 701-745)”, the Kd in experiment [1] came to 11 µM.
